According to the MegaScale stability set (Tsuboyama et al. 2023):

B1: HHH_rd2_0155 (parent)
chain: PPDDERKKAEKAARSGNEEKAREILERLGYSEDEARELAKRLR

Variants of: B1
Experiment: folding stability dG (cDNA display proteolysis); higher = more stable
Details: PBS, room temperature

| Variant | folding stability dG [kcal/mol] |
| --- | --- |
| PPDDERKKAEKAARSGNEEKARQILERLGYSEDEARELAKRLR | 2.18 |
| PPDDERKKAEKAARSGNEEKARMILERLGYSEDEARELAKRLR | 2.03 |
| PPDDERKKAEKAARSGNEEKARFILERLGYSEDEARELAKRLR | 1.61 |
| PPDDERKKAEKAARSGNEEKARHILERLGYSEDEARELAKRLR | 1.85 |
| PPDDERKKAEKAARSGNEEKARYILERLGYSEDEARELAKRLR | 1.68 |
| PPDDERKKAEKAARSGNEEKARTILERLGYSEDEARELAKRLR | 1.69 |
| PPDDERKKAEKAARSGNEEKARNILERLGYSEDEARELAKRLR | 1.52 |
| PPDDERKKAEKAARSGNEEKARKILERLGYSEDEARELAKRLR | 2.12 |
| PPDDERKKAEKAARSGNEEKARVILERLGYSEDEARELAKRLR | 1.72 |
| PPDDERKKAEKAARSGNEEKARRILERLGYSEDEARELAKRLR | 2.21 |
| PPDDERKKAEKAARSGNEEKARLILERLGYSEDEARELAKRLR | 2.19 |
| PPDDERKKAEKAARSGNEEKARGILERLGYSEDEARELAKRLR | 1.4 |
| PPDDERKKAEKAARSGNEEKARAILERLGYSEDEARELAKRLR | 2.06 |
| PPDDERKKAEKAARSGNEEKARSILERLGYSEDEARELAKRLR | 1.73 |
| PPDDERKKAEKAARSGNEEKARIILERLGYSEDEARELAKRLR | 1.93 |
| PPDDERKKAEKAARSGNEEKARCILERLGYSEDEARELAKRLR | 2.35 |
| PPDDERKKAEKAARSGNEEKARDILERLGYSEDEARELAKRLR | 1.54 |
| PPDDERKKAEKAARSGNEEKARPILERLGYSEDEARELAKRLR | 0.763 |
| PPDDERKKAEKAARSGNEEKARWILERLGYSEDEARELAKRLR | 1.83 |
| PPDDERKKAEKAARSGNEEKAREILEKLGYSEDEARELAKRLR | 2.14 |

| Variant | folding stability dG [kcal/mol] |
| --- | --- |
| PPDDERKKAEKAARSGNEEKAREILEILGYSEDEARELAKRLR | 1.28 |
| PPDDERKKAEKAARSGNEEKAREILEELGYSEDEARELAKRLR | 1.1 |
| PPDDERKKAEKAARSGNEEKAREILENLGYSEDEARELAKRLR | 1.7 |
| PPDDERKKAEKAARSGNEEKAREILEDLGYSEDEARELAKRLR | 0.997 |
| PPDDERKKAEKAARSGNEEKAREILEFLGYSEDEARELAKRLR | 1.39 |
| PPDDERKKAEKAARSGNEEKAREILELLGYSEDEARELAKRLR | 1.81 |
| PPDDERKKAEKAARSGNEEKAREILEMLGYSEDEARELAKRLR | 1.7 |
| PPDDERKKAEKAARSGNEEKAREILEALGYSEDEARELAKRLR | 2.07 |
| PPDDERKKAEKAARSGNEEKAREILEGLGYSEDEARELAKRLR | 1.89 |
| PPDDERKKAEKAARSGNEEKAREILEHLGYSEDEARELAKRLR | 1.6 |
| PPDDERKKAEKAARSGNEEKAREILEPLGYSEDEARELAKRLR | 0.534 |
| PPDDERKKAEKAARSGNEEKAREIIERLGYSEDEARELAKRLR | 0.435 |
| PPDDERKKAEKAARSGNEEKAREIMERLGYSEDEARELAKRLR | 0.884 |
| PPDDERKKAEKAARSGNEEKAREIPERLGYSEDEARELAKRLR | -0.039 |
| PPDDERKKAEKAARSGNEEKAREIYERLGYSEDEARELAKRLR | 1.87 |
| PPDDERKKAEKAARSGNEEKAREIKERLGYSEDEARELAKRLR | -0.071 |
| PPDDERKKAEKAARSGNEEKAREIAERLGYSEDEARELAKRLR | 0.215 |
| PPDDERKKAEKAARSGNEEKAREIEERLGYSEDEARELAKRLR | 0.37 |
| PPDDERKKAEKAARSGNEEKAREIFERLGYSEDEARELAKRLR | 2.35 |
| PPDDERKKAEKAARSGNEEKAREIRERLGYSEDEARELAKRLR | 0.127 |

| Variant | folding stability dG [kcal/mol] |
| --- | --- |
| PPDDERKKAEKAARSGNEEKAREITERLGYSEDEARELAKRLR | 0.034 |
| PPDDERKKAEKAARSGNEEKAREIQERLGYSEDEARELAKRLR | 0.444 |
| PPDDERKKAEKAARSGNEEKAREISERLGYSEDEARELAKRLR | 0.333 |
| PPDDERKKAEKAARSGNEEKAREIDERLGYSEDEARELAKRLR | 0.2 |
| PPDDERKKAEKAARSGNEEKAREIVERLGYSEDEARELAKRLR | 0.267 |
| PPDDERKKAEKAARSGNEEKAREINERLGYSEDEARELAKRLR | 0.253 |
| PPDDERKKAEKAARSGNEEKAREIWERLGYSEDEARELAKRLR | 1.64 |
| PPDDERKKAEKAARSGNEEKAREIGERLGYSEDEARELAKRLR | 0.372 |
| PPDDERKKAEKAARSGNEEKAREIHERLGYSEDEARELAKRLR | -0.026 |
| PPDDERKKAEKAARSGNEEKAREILWRLGYSEDEARELAKRLR | 0.866 |
| PPDDERKKAEKAARSGNEEKAREILYRLGYSEDEARELAKRLR | 1.49 |
| PPDDERKKAEKAARSGNEEKAREILSRLGYSEDEARELAKRLR | 1.72 |
| PPDDERKKAEKAARSGNEEKAREILRRLGYSEDEARELAKRLR | 2.65 |
| PPDDERKKAEKAARSGNEEKAREILVRLGYSEDEARELAKRLR | 2.61 |
| PPDDERKKAEKAARSGNEEKAREILKRLGYSEDEARELAKRLR | 2.41 |
| PPDDERKKAEKAARSGNEEKAREILARLGYSEDEARELAKRLR | 1.73 |
| PPDDERKKAEKAARSGNEEKAREILIRLGYSEDEARELAKRLR | 2.65 |
| PPDDERKKAEKAARSGNEEKAREILFRLGYSEDEARELAKRLR | 1.47 |
| PPDDERKKAEKAARSGNEEKAREILLRLGYSEDEARELAKRLR | 2.56 |
